# Laboratory results reported in patent publication US20250090676A1 (SUTRO BIOPHARMA, published 2025).
# Key:
# [1] = target: T1, cynomolgus monkey folate receptor alpha (cynomolgus monkey, UniProt P15328 25-234 (human entry)); assay: FACS, CHO-cFOLR1 cells
# T1 construct: Expressed on the surface of stably transfected CHO cells; also called cyno FolR1; CHO-cyno FolR1
# Experimental: (§1) CHO cells were transfected to stably express human (CHO-hFOLR1), cynomolgus (CHO-cFOLR1), or mouse (CHO-mFOLR1) target molecule FOLR1 on the cell surface. Parental CHO cells were used as a negative control to determine background binding levels. Parental CHO and stably transfected CHO-hFOLR1, CHO-cFOLR1, and CHO-mFOLR1 cells were cultured in Ham's F-12: high glucose DMEM (50:50) (Corning, Cellgro-Mediatech) supplemented with 10% heat-inactivated fetal bovine serum (Corning, Cellgro-Mediatech), 1% Penicillin/Streptomycin (Corning, Cellgro-Mediatech) and 2 mmol/L-glutamax (Life Technology).
# (§2) A mixture of fluoresecent-labeled parental CHO cells and unlabeled CHO-hFOLRlcells were prepared as follows. Parental CHO cells were washed twice in PBS and incubated in PBS containing with 1 nM CellTrace™ Oregon Green488® (Life Technologies) at 37° C. for 30 minutes. Labeled parental CHO cells were then washed 2× with Ham's F-12 media and 2× with FACS buffer (PBS with 1% bovine serum albumin). Unlabeled CHO-hFOLR1 cells were similarly washed and prepared. Labeled parental CHO and unlabeled CHO-hFOLR1 cells were combined at 1:1 ratio and seeded at 50 μL per well (200,000 cells per well) in 96 well polypropylene plates. Cells were mixed with 50 μL of test antibodies (i.e., anti-FOLR1 variants) serially diluted in FACS buffer and incubated on ice for 60 mins. […] Data were analyzed using FlowJo® software (FlowJo, LLC; Ashland, OR) to determine mean fluorescence intensities. Binding constants were calculated using the statistical software, GraphPad Prism (GraphPad Software; La Jolla, CA) using the nonlinear regression equation, one site-specific binding with Hill slope. Secondary antibody alone was used as a control, in addition to measuring non-specific antibody binding to CHO parental cells.
# [2] = target: T2, murine folate receptor alpha (mouse, UniProt P35846 25-232); assay: FACS, CHO-mFOLR1 cells;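 note: flow cytometry binding of serially diluted test antibodies to transfected CHO cells on ice, mean fluorescence intensity, parental CHO cells give background, Kd from one-site specific binding fit with Hill slope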
# T2 construct: Expressed on the surface of stably transfected CHO cells; also called mouse FolR1; CHO-mouse FolR1
# Experimental: as §1, §2
# [3] = target: T3, human folate receptor alpha (hFOLR1) (human, UniProt P15328 25-234); assay: FACS, CHO-hFOLR1 cells;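 note: flow cytometry of serially diluted antibodies binding CHO cells stably expressing the receptor, 60 min on ice, mixed with dye-tagged parental CHO as background control, one-site specific fit with Hill slope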
# T3 construct: endogenous on FOLR1-positive KB and Igrov1 cells (cell killing); also called human FolR1; FolRα
# Experimental: as §1, §2
# [4] = target: T3, human folate receptor alpha (hFOLR1); assay: cell-based or functional assay
# T3 sequence (P15328 25-234 limits assumed): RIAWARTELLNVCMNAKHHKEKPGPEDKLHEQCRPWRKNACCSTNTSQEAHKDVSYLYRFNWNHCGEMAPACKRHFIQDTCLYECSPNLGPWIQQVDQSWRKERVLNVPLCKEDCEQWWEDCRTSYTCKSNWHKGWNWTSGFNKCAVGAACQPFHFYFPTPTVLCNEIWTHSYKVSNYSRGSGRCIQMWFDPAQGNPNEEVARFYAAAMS
# T1 sequence (P15328 other isoform, or with tags, fused parts or gaps limits assumed): as the sequence (P15328 25-234 limits assumed) above, with I2T, W4R, R37K, Q117R, A146P, H171Y counted along it
# T2 sequence (P35846 25-232 limits assumed): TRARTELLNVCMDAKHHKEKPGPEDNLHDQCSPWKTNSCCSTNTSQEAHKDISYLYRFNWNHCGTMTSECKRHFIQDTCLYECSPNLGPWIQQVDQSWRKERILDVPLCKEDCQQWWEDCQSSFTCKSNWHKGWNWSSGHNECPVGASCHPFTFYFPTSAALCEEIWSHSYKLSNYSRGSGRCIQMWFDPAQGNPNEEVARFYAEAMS
Binder,Bmax (MFI) [1] [MFI],Kd [1] [pM],Bmax (MFI) [2] [MFI],Kd [2] [pM],Bmax (MFI) [3] [MFI],Kd [3] [pM],"Igrov, 2° Antibody Cell Killing, Nb-SC239: EC50 [4] [pM]","Igrov, 2° Antibody Cell Killing, Nb-SC239: Span [4] [%]","KB, 2° Antibody Cell Killing, Nb-239: EC50 [4] [pM]","KB, 2° Antibody Cell Killing, Nb-239: Span [4] [%]",binding result [2]
"SRP1848-C05 (antibody, V domains shown, HC variant paired with trastuzumab LC, cell-free expressed, HIS- and FLAG-tagged; also called Antibody 21) VH: EVQLVESGGGLVQPGGSLRLSCAASGFNIRKYSIHWVRQAPGKGLEWVGDIFPIDGINDYADSVKGRFTISADTSKNTAYLQMNSLRAEDTAVYYCARGSWSWKAGYGYYLDYWGQGTLVTVSS VL: not shown",15200,350,4130,4800,26800,520,21,62,73,92,–
"SRP1848-D10 (antibody, V domains shown, HC variant paired with trastuzumab LC, cell-free expressed, HIS- and FLAG-tagged; also called Antibody 30) VH: EVQLVESGGGLVQPGGSLRLSCAASGFNISRNSIHWVRQAPGKGLEWVGWISPNDGTTDYADSVKGRFTISADGSKNTAYLQMNSLRAEDTAVYYCARGAWSWRSGYGYYIDYWGQGTLVTVSS VL: not shown",20600,520,1860,13000,26500,480,12,54,16,90,–
"SRP1848-D07 (antibody, V domains shown, HC variant paired with trastuzumab LC, cell-free expressed, HIS- and FLAG-tagged; also called Antibody 28) VH: EVQLVESGGGLVQPGGSLRLSCAASGFNISKYYIHWVRQAPGKGLEWVGGISPNDGYTDYADSVKGRFAISADTSKNTAYLQMNSLRAEDTAVYYCARGFWAWRSGYGYYLDYWGQGTLVTVSS VL: not shown",24300,920,–,–,25700,770,32,71,75,94,no binding
"SRP1848-C01 (antibody, V domains shown, HC variant paired with trastuzumab LC, cell-free expressed, HIS- and FLAG-tagged; also called Antibody 18) VH: EVQLVESGGGLVQPGGSLRLSCAASGFNIGNSYIHWVRQAPGKGLEWVGGVTPNDGYTDYADSVKGRFTISADTSKNTTYLQMNSLRAEDTAVYYCARGSWFWRAGYGYYLDYWGQGALVTVSS VL: not shown",25900,600,1370,26000,28500,660,23,68,–,90,–
"SRP1848-E02 (antibody, V domains shown, HC variant paired with trastuzumab LC, cell-free expressed, HIS- and FLAG-tagged; also called SKP1848-E02; Antibody 32) VH: EVQLVESGGGLVQPGGSLRLSCAASGFNIGKYSIHWVRQAPGKGLEWVGEIYPNDGNTDYADSVKGRFTISADTSKNTAYLQMNSLRAEDTAVYYCARGSWSWRSGYGYYLDYWGQGTLVTVSS VL: not shown",18700,590,1470,21000,23800,530,25,71,46,93,–
"SRP1848-D04 (antibody, V domains shown, HC variant paired with trastuzumab LC, cell-free expressed, HIS- and FLAG-tagged; also called Antibody 26) VH: EVQLVESGGGLVQPGGSLRLSCAASGFNISHYSIHWVRQAPGKGLEWVGEIYPRDGITDYADSVKGRFTISADTSKNTAYLQMNSLSAEDTAVYYCARGYWFWRSGYGYYLDYWGQGTLVTVSS VL: not shown",25700,2840,–,–,29300,2210,68,77,380,97,no binding
"SRP1848-D05 (antibody, V domains shown, HC variant paired with trastuzumab LC, cell-free expressed, HIS- and FLAG-tagged; also called Antibody 27) VH: EVQLVESGGGLVQPGGSLRLSCAASGFNISISYIHWVRQAPGKGLEWVGGISPIDGYTDYADSVKGRFTISADTSKNTAYLQMNSLRAEDTAVYYCARGSWSWRAGYGYYLDYWGQGTLVTVSS VL: not shown",22200,450,1360,14000,26700,570,–,73,55,92,–
"SRP1848-C07 (antibody, V domains shown, HC variant paired with trastuzumab LC, cell-free expressed, HIS- and FLAG-tagged; also called Antibody 22) VH: EVQLVESGGGLVQPGGSLRLSCAASGFNIRKYSIHWVRQAPGKGLEWVGDIFPIDGITDYADSMKGRFTISADTSKNTAYLQMNSLRAEDTAVYYCARGSWSWPAGYGYYQDYWGQGTLVTVSS VL: not shown",18100,230,3170,1400,28800,620,13,67,65,93,–
